Reference: the supplement of paper PMC10567573

B1: EPB41L3 (parent)
chain: KKFLTLGSKFRYSGRTQAQTRRAS

Variants of: B1
Assay: protein stability index of a GFP-peptide fusion (GPS, HEK-293T) (PSI 1-6); higher = more stable
Conditions: c terminus: a fixed tail appended
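Also: lentivirally expressed fusions sorted by FACS into six bins by GFP to DsRed ratio, PSI derived from sequencing read proportions per bin multiplied by bin number.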

Variant | protein stability index
KKFLTLGSKFRISGRTQAQTRRAS [Y12I] | 3.69
KKFLTLGSKFRPSGRTQAQTRRAS [Y12P] | 3.23
KKFLTLGSKFRCSGRTQAQTRRAS [Y12C] | 2.54
KKFLTLGSKFRFSGRTQAQTRRAS [Y12F] | 2.6
KKFPTLGSKFRYSGRTQAQTRRAS [L4P] | 3.8
KKFITLGSKFRYSGRTQAQTRRAS [L4I] | 2.56
KKFETLGSKFRYSGRTQAQTRRAS [L4E] | 2.85
KKFKTLGSKFRYSGRTQAQTRRAS [L4K] | 3.33
KKFHTLGSKFRYSGRTQAQTRRAS [L4H] | 3.44
KKFTTLGSKFRYSGRTQAQTRRAS [L4T] | 3.11
KKFMTLGSKFRYSGRTQAQTRRAS [L4M] | 3.19
KKFQTLGSKFRYSGRTQAQTRRAS [L4Q] | 2.38
KKFRTLGSKFRYSGRTQAQTRRAS [L4R] | 3.13
KKFLDLGSKFRYSGRTQAQTRRAS [T5D] | 1.62
KKFLILGSKFRYSGRTQAQTRRAS [T5I] | 2.27
KKFLELGSKFRYSGRTQAQTRRAS [T5E] | 2.96
KKFLSLGSKFRYSGRTQAQTRRAS [T5S] | 3.05
KKFLALGSKFRYSGRTQAQTRRAS [T5A] | 3.78
KKFLPLGSKFRYSGRTQAQTRRAS [T5P] | 2.67
KKFLKLGSKFRYSGRTQAQTRRAS [T5K] | 3.39
KKFLCLGSKFRYSGRTQAQTRRAS [T5C] | 2.21
KKFLNLGSKFRYSGRTQAQTRRAS [T5N] | 3.47
KKFLWLGSKFRYSGRTQAQTRRAS [T5W] | 1.56
KKFLTLGSKFRYSGRTHAQTRRAS [Q17H] | 3.25

Variant | protein stability index
KKFLTLGSKFRYSGRTYAQTRRAS [Q17Y] | 2.12
KKFLTLGSKFRYSGRTLAQTRRAS [Q17L] | 2.77
KKFLTLGSKFRYSGRTMAQTRRAS [Q17M] | 2.77
KKFLTLGSKFRYSGRTGAQTRRAS [Q17G] | 2.63
KKFLTLGSKFRYSGRTAAQTRRAS [Q17A] | 2.32
KKFLTLGSKFRYSGRTVAQTRRAS [Q17V] | 2.24
KKFLTLGSKFRYSGRTTAQTRRAS [Q17T] | 2.38
KKFLTLGSKFRYSGRTNAQTRRAS [Q17N] | 2.01
KKFLTLGSKFRYSGRTDAQTRRAS [Q17D] | 2.95
KKFLTLGSKFRYSGRTEAQTRRAS [Q17E] | 2.76
KKFLTLGSKFRYSGRTKAQTRRAS [Q17K] | 2.11
KFFLTLGSKFRYSGRTQAQTRRAS [K2F] | 4.04
KCFLTLGSKFRYSGRTQAQTRRAS [K2C] | 2.6
KIFLTLGSKFRYSGRTQAQTRRAS [K2I] | 2.54
KLFLTLGSKFRYSGRTQAQTRRAS [K2L] | 1.57
KKRLTLGSKFRYSGRTQAQTRRAS [F3R] | 4.15
KKNLTLGSKFRYSGRTQAQTRRAS [F3N] | 3.59
KKYLTLGSKFRYSGRTQAQTRRAS [F3Y] | 3.58
KKLLTLGSKFRYSGRTQAQTRRAS [F3L] | 3.22
KKMLTLGSKFRYSGRTQAQTRRAS [F3M] | 3.56
KKVLTLGSKFRYSGRTQAQTRRAS [F3V] | 3.07
KKTLTLGSKFRYSGRTQAQTRRAS [F3T] | 3.48
KKDLTLGSKFRYSGRTQAQTRRAS [F3D] | 3.81
KKFLTLGSKFRYSGRTQAETRRAS [Q19E] | 2.69

Variant | protein stability index
KKFLTLGSKFRYSGRTQAYTRRAS [Q19Y] | 2.22
KKFLTLGSKFRYSGRTQAITRRAS [Q19I] | 2.37
KKFLTLGSKFRYSGRTQACTRRAS [Q19C] | 2.77
KKFLTLGSKFRYSGRTQADTRRAS [Q19D] | 1.2
KKFLTLGSKFRYSGRTQATTRRAS [Q19T] | 2.61
KKFLTLGSKFRYSGRTQAPTRRAS [Q19P] | 3.19
KKFLTLGSKFRYSGRTQARTRRAS [Q19R] | 3.03
KKFLTLGSKFRYSGRTQANTRRAS [Q19N] | 3.41
KKFLTLPSKFRYSGRTQAQTRRAS [G7P] | 3.18
KKFLTLISKFRYSGRTQAQTRRAS [G7I] | 1.35
KKFLTLVSKFRYSGRTQAQTRRAS [G7V] | 2.26
KKFLTLSSKFRYSGRTQAQTRRAS [G7S] | 3.04
KKFLTLWSKFRYSGRTQAQTRRAS [G7W] | 1.52
KKFLTLNSKFRYSGRTQAQTRRAS [G7N] | 2.88
KKFLTLLSKFRYSGRTQAQTRRAS [G7L] | 2.25
KKFLTLKSKFRYSGRTQAQTRRAS [G7K] | 2.37
KKFLTLQSKFRYSGRTQAQTRRAS [G7Q] | 2.85
KKFLTLCSKFRYSGRTQAQTRRAS [G7C] | 2.38
KKFLTLHSKFRYSGRTQAQTRRAS [G7H] | 2.51
KKFLTLGLKFRYSGRTQAQTRRAS [S8L] | 2.17
KKFLTLGAKFRYSGRTQAQTRRAS [S8A] | 3.02
KKFLTLGPKFRYSGRTQAQTRRAS [S8P] | 2.16
KKFLTLGTKFRYSGRTQAQTRRAS [S8T] | 2.88
KKFLTLGMKFRYSGRTQAQTRRAS [S8M] | 2.74

Variant | protein stability index
KKFLTLGDKFRYSGRTQAQTRRAS [S8D] | 2.86
KKFLTLGGKFRYSGRTQAQTRRAS [S8G] | 2.81
KKFLTLGEKFRYSGRTQAQTRRAS [S8E] | 3.26
KKFLTLGYKFRYSGRTQAQTRRAS [S8Y] | 3.4
KKFLTLGSKPRYSGRTQAQTRRAS [F10P] | 4.07
KKFLTLGSKHRYSGRTQAQTRRAS [F10H] | 4.22
KKFLTLGSKNRYSGRTQAQTRRAS [F10N] | 3.59
KKFLTLGSKDRYSGRTQAQTRRAS [F10D] | 3.88
KKFLTLGSKYRYSGRTQAQTRRAS [F10Y] | 3.21
KKFLTLGSKSRYSGRTQAQTRRAS [F10S] | 4.22
KKFLTLGSKQRYSGRTQAQTRRAS [F10Q] | 3.88
KKFLTLGSKIRYSGRTQAQTRRAS [F10I] | 3.63
KKFLTLGSKFRYSGRTQAQTKRAS [R21K] | 3.75
KKFLTLGSKFRYSGRTQAQTWRAS [R21W] | 2.85
KKFLTLGSKFRYSGRTQAQTVRAS [R21V] | 3.27
KKFLTLGSKFRYSGRTQAQTTRAS [R21T] | 2.24
KKFLTLGSKFRYSGRTQAQTLRAS [R21L] | 1.61
KKFLTLGSKFRYSGRTQAQTIRAS [R21I] | 2.16
KKFLTLGSKFRYSGRTQAQTRRAQ [S24Q] | 2.51
KKFLTLGSKFRYSGRTQAQTRRAT [S24T] | 3.46
KKFLTLGSKFRYSGRTQAQTRRAW [S24W] | 2.57
KKFLTLGSKFRYSGRTQAQTRRAG [S24G] | 2.65
